Earlier results, collected in article PMC6691274 (Molecular Medicine Reports, 2019).
Like-named read-outs stand apart in the source and are kept apart here.

Legend:
[1] = test system: dipeptidyl-peptidase-IV (DPP-IV)
GLP-1R = biological target: T1, GLP-1R (Rattus norvegicus, UniProt P32301); conditions: INS-1 rat insulinoma xenograft model and rat MI/R model
T1 sequence (P32301 22-463): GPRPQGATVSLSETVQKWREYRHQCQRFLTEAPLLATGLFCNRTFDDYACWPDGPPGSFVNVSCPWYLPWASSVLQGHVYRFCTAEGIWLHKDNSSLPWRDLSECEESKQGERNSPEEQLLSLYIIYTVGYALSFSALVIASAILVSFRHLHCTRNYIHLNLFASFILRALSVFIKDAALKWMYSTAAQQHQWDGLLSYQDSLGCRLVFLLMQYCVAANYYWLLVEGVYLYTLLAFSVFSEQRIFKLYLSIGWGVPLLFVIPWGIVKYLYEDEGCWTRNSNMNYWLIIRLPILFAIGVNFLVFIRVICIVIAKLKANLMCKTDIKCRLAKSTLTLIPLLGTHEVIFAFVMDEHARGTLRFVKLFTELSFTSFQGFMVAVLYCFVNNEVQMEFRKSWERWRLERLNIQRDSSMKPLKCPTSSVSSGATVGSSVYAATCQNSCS

GLP-1: 30-amino-acid-long gut hormone secreted from intestinal endocrine L-cells
Stability towards DPP-IV ([1]; upon being released into the blood): rapidly degraded

^18F-4-fluorobenzamido-N-ethylamino-maleimide (FBEM)-Cys^40-exendin-4 [^18F-FBEM-Cys^40-exendin-4]
Affinity with GLP-1R (GLP-1R): high affinity

Exendin-4: an analog of GLP-1 with 53% amino acid homology, resistant to DPP-IV
Stability towards DPP-IV [1]: resistant
